Laboratory results taken from the supplement of paper PMC10567573.

B1: NEK8 (parent)
chain: VTIKHVACGDFFTACLTDRGIIMT
B2: ZNF511 (parent)
chain: AAPFRFVARPVRFPREHQFFEDGD

Variants of: B1
Assay: protein stability index of a GFP-peptide fusion (GPS, HEK-293T) (PSI 1-6); higher = more stable
Settings: c terminus: a fixed tail appended
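Note: lentivirally expressed fusions sorted by FACS into six bins by GFP to DsRed ratio, PSI derived from sequencing read proportions per bin multiplied by bin number.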

Protein stability index, by site and new letter:
H5: I 4.16 | K 1.19 | L 1.99 | M 5.14 | P 3.52 | R 3.65 | S 3.48 | T 3.55 | W 2.46
V6: A 2.86 | D 1.35 | E 3.14 | F 2.71 | G 2.57 | H 2.85 | I 3.76 | K 2.63 | L 2.85 | N 3.92 | P 4.25 | R 3.07 | S 2.55 | T 2.61 | W 4.09 | Y 1.72
A7: C 1.98 | D 2.43 | E 2.69 | I 2.61 | K 3.25 | L 2.33 | M 2.95 | P 1.72 | Q 3.77 | S 1.57 | T 2.88 | Y 3.2
C8: A 3.3 | D 3.33 | E 3.57 | F 2.28 | I 2.51 | L 3.14 | N 3.4 | P 2.4 | Q 3.4 | R 3.18 | T 2.44 | V 2.48 | W 2.41 | Y 3.47
G9: A 2.32 | C 1.88 | D 3 | E 2.66 | F 2.38 | H 2.74 | I 3.19 | K 2.98 | M 3.93 | R 3.64 | S 3.21 | T 3.5 | W 3.39 | Y 3.79
D10: C 2.56 | E 3.23 | H 3.8 | I 3.11 | K 3.54 | L 2.26 | M 3.29 | N 1.59 | R 2.3 | T 2.71 | V 2.91 | W 2.4 | Y 2.44
F11: A 2.49 | C 1.91 | D 1.46 | E 2.9 | G 1.8 | H 1.88 | I 4.45 | K 2.13 | L 2.23 | M 3.07 | N 2.85 | P 3.05 | Q 3.07 | S 2.05 | T 2.82 | V 2.76 | W 4.01 | Y 2.81
F12: C 1.53 | D 2.2 | E 1.72 | G 2.17 | I 3.98 | K 1.81 | L 1.79 | M 2.61 | N 2.67 | P 1.8 | R 2.21 | S 3.05 | T 3.71 | V 2.77 | W 2.6 | Y 2.02
T13: C 2.13 | D 3.61 | F 2.81 | H 3.07 | I 1.31 | K 3.17 | L 2.11 | M 2.39 | N 1.86 | P 3.32 | Q 2.47 | S 1.28 | V 2.64 | Y 3.95
A14: C 2.65 | D 1.98 | E 1.47 | G 2.51 | H 1.86 | I 2.87 | K 1.9 | L 2.31 | M 3.53 | P 2.68 | Q 1.12 | R 2.34 | T 3.17 | V 2.55 | W 2.01 | Y 2.65
C15: D 3.14 | E 3.04 | F 3.35 | H 1.61 | I 3.26 | K 2.58 | L 2.37 | M 4.25 | N 4.23 | Q 2.59 | R 2.91 | S 3.9 | T 3.74 | V 2.5 | W 3.09 | Y 2.42
L16: A 4.14 | C 2.43 | D 1.91 | E 1.89 | F 3.61 | H 2.88 | I 2.3 | K 3.12 | M 2.15 | P 2.59 | Q 3.06 | R 2.33 | S 3.85 | T 1.76 | Y 2.13
T17: C 2.27 | D 2.27 | F 3.49 | G 1.94 | H 3.72 | I 4.6 | K 4.32 | L 3.17 | M 3.48 | N 4.51 | P 2.64 | Q 3.69 | R 3.53 | S 3.16 | V 3.2
D18: A 4.82 | C 2.02 | F 4.13 | G 3.08 | K 4.11 | L 2.09 | N 3.07 | P 3.31 | R 5.42 | S 4.67 | T 2.72 | V 3.85 | W 3.08 | Y 3.05
R19: A 2.01 | C 2.48 | D 3.29 | E 3.52 | G 3.25 | H 1.81 | I 2.96 | K 3.78 | M 2.32 | N 3.56 | P 4.49 | Q 1.92 | S 2.97 | T 2.77 | V 2.56 | W 3.11 | Y 2.32
G20: A 3.45 | C 2.94 | D 2.04 | F 2.21 | H 3.22 | I 2.82 | K 2.35 | L 2.91 | M 3.22 | N 2.75 | P 3.42 | Q 2.06 | S 2.84 | T 1.48 | V 1.72 | W 2.57 | Y 2.3
I21: A 1.79 | C 2.7 | D 2.13 | E 3.51 | F 2.9 | G 3.21 | H 2.36 | K 2.78 | L 2.25 | M 2.95 | N 2.87 | P 2.25 | Q 2.92 | R 2.49 | S 2.5 | T 2.48 | V 3.14 | W 2.31
I22: A 2.38 | C 3.72 | D 3.93 | E 3.75 | F 4.9 | G 2.98 | K 3.62 | L 4.46 | N 3.67 | P 2.67 | Q 3.88 | V 2.46 | W 4.62 | Y 2.39
M23: A 1.6 | C 2.67 | D 3.49 | E 2.81 | G 3.62 | H 2.61 | I 2.77 | K 1.91 | L 3.85 | N 2.3 | P 2.9 | Q 1.47 | R 1.41 | S 2.56 | T 1.89 | V 2.73 | Y 3.28
T24: A 2.87 | C 2.87 | D 3.14 | E 3.11 | F 2.64 | G 3.47 | H 1.84 | I 3.19 | K 2.93 | L 4.18 | N 2.41 | R 2.45 | S 2.33 | V 2.81 | Y 2.3

Variants of: B2
Assay: as above
Settings: c terminus: a fixed tail appended

Protein stability index, by site and new letter:
F19: A 2.52 | N 2.52
F13: G 1.74
P14: V 2.22 | M 2.17
G23: V 1.9
P10: T 1.29 | H 2.14 | S 1.5
D22: Q 2 | T 2.29
H17: E 2.71
A1: M 3.08
P3: S 2.76 | W 3.21 | K 1.81 | L 1.93
A8: H 2.58 | F 2.02
E16: C 1.93 | T 2.18 | M 1.57
R5: F 2.18
V11: T 1.94 | Q 2.38
F4: Q 4.68 | T 4.36 | I 3.9 | E 4.46
F6: D 4.19
F20: S 2.96
A2: Y 2.42 | I 2.69
V7: R 3.95
